Results taken from patent US12390491B2, “Compositions and methods for providing chemoprotective effects” (GTECH BIO LLC, priority 2020, dated 2025).

Assays:
Assay type in all cases: cell-based
CEM cells [1] = experiment: GSH level by fluorometric assay, untransduced vs GCLM-transduced cells, pre- and post-busulfan exposure
Method: (§1) Jurkat, CEM, and Tf-1a cell lines were transduced with a lentiviral vector that expresses GCLM and green fluorescent protein (GFP) genes. Chemoprotection experiments were performed by incubating untransduced or mixed populations of (20% transduced, 80% untransduced) cells with busulfan in concentrations ranging from 0 to 200 μg/ml for 1, 2 or 4 hours. Cells were then incubated in busulfan-free culture for 24, 48, 72 and 96 h. Area under the concentration-time curve (AUC) was estimated by using trapezoidal rule from different times and concentrations of incubation. Pre- and post-exposure GSH levels were measured with fluorometric assays. Cell survival and proliferation at different time-points were measured by Nucleocounter NC-200 and flow cytometry using PI and 7-AAD staining protocols. The chemoselection of protected GFP+ cells were evaluated by flow cytometry. Baseline GSH levels and GCLM expression were also measured in primary human HSPCs harvested from 3 different donors with fluorometric and RT-PCR assays.
(§2) The Cells are incubated with busulfan (0, 1, 2, 4, 6, 8, 10, 20, 40, 60, 80, 100 and 200 μg/ml) in serum-free media (RPMI) for 1, 2 and 4 hours. The cells were then washed with ice-cold buffer (PBS+0.5% HSA+0.1% glucose). The washed cells were cultured in RPMI+20% FBS. 24, 48, 72, and 96 h time-point measurements were done.
(§3) Jurkat, CEM, and TF-1a cell lines were transduced with a lentiviral vector that expresses GCLM and green fluorescent protein (GFP) genes (FIG. 2A). Chemoprotection experiments were performed by incubating untransduced or mixed populations of (20% transduced, 80% untransduced) cells with busulfan in concentrations ranging from low (2 to 10 ug/ml) to moderate and high (10 to 200 ug/ml) for 1 or 2 hours. Cells were then incubated and viable cell counts were documented in busulfan-free culture for the 24, 48, 72 and 96-hr timepoints (FIG. 2B). Pre- and post-transduction, and post-exposure GSH levels were measured with fluorometric assays by FACS analysis. Cell survival and proliferation were measured daily by Nucleocounter NC-200 and flow cytometry using PI and 7-AAD staining protocols. The chemo selection of protected GFP-positive cells were evaluated by flow cytometry.

[2] = system: Jurkat, CEM and TF-1a cells; experiment: Cell survival and proliferation (Nucleocounter NC-200, flow cytometry with PI and 7-AAD)
Method: as §1, with “RT-PCR assays. […]” for “RT-PCR assays.”
(§4) Jurkat, CEM, and TF-1a cell lines were transduced with a lentiviral vector that expresses GCLM and green fluorescent protein (GFP) genes (FIG. 2A). […] Pre- and post-transduction, and post-exposure GSH levels were measured with fluorometric assays by FACS analysis. […] The chemo selection of protected GFP-positive cells were evaluated by flow cytometry.

CEM cells [3] = experiment: Chemoprotection experiment: busulfan exposure, then viable cell count and proliferation in busulfan-free culture; conditions: for expansion of viable transduced cells: CEM cells; for fold expansion in viable transduced cells: at 72 h
Method: as §1, §2, §3

CEM cells [4] = experiment: Chemoselection of protected GFP+ cells by flow cytometry in mixed populations (20% transduced, 80% untransduced)
Method: as §1, §2, §3

TF-1a cells = experiment: GSH level by fluorometric assay, untransduced vs GCLM-transduced cells; conditions: lentiviral GCLM/GFP transduction
Method: as §1, §4

Jurkat cells = experiment: as above; conditions: lentiviral GCLM/GFP transduction
Method: as §1, §4

For `CS(=O)(=O)OCCCCOS(C)(=O)=O` [busulfan, reference compound], the “GSH in untransduced cells after busulfan exposure” value (CEM cells [1]; untransduced cells) was “depleted”, the “dependence of cell death and proliferation on busulfan exposure” value ([2]; all cell cultures, AUC estimated by trapezoidal rule) was “AUC-dependent” and the “sensitivity of untransduced cells to busulfan exposure” value (CEM cells [3]; untransduced CEM cells compared with Jurkat and TF-1a) was “most sensitive”. For the same molecule, the “survival of untransduced cells after busulfan” value (CEM cells [3]; untransduced CEM cells, higher doses (10 and 20 μg/ml), by 96 hours) was “all dead”.

B1: GCLM: Heterologous human glutamate-cysteine ligase modifier subunit (SEQ ID NO: 1) overexpressed in cells via lentiviral vector co-expressing GFP (protein)
chain: MGTDSRAAKALLARARTLHLQTGNLLNWGRLRKKCPSTHSEELHDCIQKTLNEWSSQINPDLVREFPDVLECTVSHAVEKINPDEREEMKVSAKLFIVESNSSSSTRSAVDMACSVLGVAQLDSVIIASPPIEDGVNLSLEHLQPYWEELENLVQSKKIVAIGTSDLDKTQLEQLYQWAQVKPNSNQVNLASCCVMPPDLTAFAKQFDIQLLTHNDPKELLSEASFQEALQESIPDIQAHEWVPLWLLRYSVIVKSRGIIKSKGYILQAKRRGS
For B1, the “GSH level in transduced cells relative to untransduced cells after busulfan” value (CEM cells [1]; CEM cells, different dose and time, 24-hr post busulfan exposure) was “at least 3.5 fold”, the “GSH level change between untransduced and transduced cells” value (CEM cells [1]; CEM cells, lentiviral GCLM/GFP transduction) was 1.7 fold and the “GSH levels in transduced cells throughout the experiment” value (CEM cells [1]; transduced cells, after busulfan exposure) was “remained stable”. For the same molecule, the “purity of transduced CEM cells” value (CEM cells [4]; 72 h of culture after 10 ug/ml busulfan for 1 h, starting from 20%) was 88%, the transduced cell population (CEM cells [4]; CEM cells, 10 or 20 μg/ml busulfan, 1-hr or 2-hr exposure, by 96 hours, from 20% initial) was 100% and the “viable transduced cell count” value (CEM cells [4]; CEM cells, 72 h of culture after 10 ug/ml busulfan for 1 h, starting from 30×10^3/ml) was 84000 mL⁻¹. The “transduced cells as share of the cultures” value (CEM cells [4]; busulfan doses higher than 10 ug/ml or exposure longer than 1 h, after 72 h) was 100%, the transduced cell population (CEM cells [4]; moderate levels of busulfan exposure, in 72-96 h) was 100% and the “effect of GCLM overexpression on cell viability and proliferation” value ([2]; Jurkat, CEM and TF-1a cells, no busulfan) was “no effect”. For the same molecule, the “GSH level change between untransduced and transduced cells” value (TF-1a cells) was 1.9 fold, the “GSH level change between untransduced and transduced cells” value (Jurkat cells) was 2.1 fold and the “expansion of viable transduced cells” value (CEM cells [3]; 10 μg/ml busulfan, by 96 hours) was 5 fold. The “expansion of viable transduced cells” value (CEM cells [3]; 20 μg/ml busulfan, by 96 hours) was 3 fold, the “protection (proliferation rate) against busulfan” value (CEM cells [3]; GCLM-transduced CEM cells, lower doses of busulfan) was “at least 3.5 fold” and the “fold expansion in viable transduced cells” value (CEM cells [3]; busulfan-exposed transduced cells) was 2.8 fold. The “fold expansion in viable transduced cells” value (CEM cells [3]; untreated (no busulfan) transduced control) was 3.2 fold.
